This is an account of results in US20060088549A1, “Chimeric virus vaccine” (priority 2004, published 2006).

Entries after “also recorded” stand apart in the source; their conditions may differ.

The subject of one experiment is 2F5. The following applies: cited from earlier work; for binding/affinity to 2F5 relative to the LELDKWASL peptide: Tian, 2003.
The target of experiment [1] is HRV14:HIV-1 gp41 […] chimeric virus 14-B128-12. Briefly: cell-based or functional assay.
For experiment [2], the target named is HRV14:HIV-1 gp41 […] chimeric virus 14-B128-22. Briefly: cell-based or functional assay.
Experiment [3] deals with HRV14:HIV-1 gp41 […] chimeric virus 14-B128-23. Briefly: cell-based or functional assay.
The target in experiment [4] is HRV14:HIV-1 gp41 […] chimeric virus 14-B64-5. Briefly: cell-based or functional assay.
Experiment [5] has as its target HRV14:HIV-1 gp41 […] chimeric virus 14-C1000-1. Briefly: cell-based or functional assay.
The target in experiment [6] is HRV14:HIV-1 gp41 […] chimeric virus 14-C4000-1 (human rhinovirus type 14) (UniProt P03303). Briefly: cell-based or functional assay.
The target of experiment [7] is HRV14:HIV-1 gp41 […] chimeric virus 14-C4000-14. Briefly: cell-based or functional assay.
Experiment [8] addresses HRV14:HIV-1 gp41 […] chimeric virus 14-C512-2. Briefly: cell-based or functional assay.
The target of experiment [9] is HRV14:HIV-1 gp41 […] chimeric virus 14-C512-3. Briefly: cell-based or functional assay.
Experiment [10] concerns the target HRV14:HIV-1 gp41 […] chimeric virus 22-AN15000-8. Briefly: cell-based or functional assay.
The target of experiment [11] is HRV14:HIV-1 gp41 […] chimeric virus 24-AN15000-3. Briefly: cell-based or functional assay.
Experiment [12] addresses HRV14:HIV-1 gp41 […] chimeric virus 44-B256-2. Briefly: cell-based or functional assay.
In experiment [13] the target is HRV14:HIV-1 gp41 […] chimeric virus 44-B4000-13. Briefly: cell-based or functional assay.
The target in experiment [14] is HRV14:HIV-1 gp41 […] chimeric virus 44-B64-12. Briefly: cell-based or functional assay.
Experiment [15] deals with HRV14:HIV-1 gp41 […] chimeric virus 44-B64-14. Briefly: cell-based or functional assay.
In experiment [16] the target is HRV14:HIV-1 gp41 […] chimeric virus 44-B64-4. Briefly: cell-based or functional assay.
The target in experiment [17] is HRV14:HIV-1 gp41 […] chimeric virus 44-BN30000-2. Briefly: cell-based or functional assay.
Experiment [18] addresses HRV14:HIV-1 gp41 […] chimeric virus 44-BN30000-9. Briefly: cell-based or functional assay.
The target in experiment [19] is HRV14:HIV-1 gp41 […] chimeric virus 44-BN7500-4. Briefly: cell-based or functional assay.
Experiment [20] has as its target HRV14:HIV-1 gp41 […] chimeric virus 44-C4000-4 (human rhinovirus type 14) (UniProt P03303). Briefly: cell-based or functional assay.
The target of experiment [21] is HRV14:HIV-1 gp41 […] chimeric virus 64-B256-2. Briefly: cell-based or functional assay.
Experiment [22] has as its target HRV14:HIV-1 gp41 […] chimeric virus 64-B32-3. Briefly: cell-based or functional assay.
The target in experiment [23] is HRV14:HIV-1 gp41 […] chimeric virus 64-B32-4. Briefly: cell-based or functional assay.
Experiment [24] addresses HRV14:HIV-1 gp41 […] chimeric virus 64-C16-2. Briefly: cell-based or functional assay.
Experiment [25] addresses HRV14:HIV-1 gp41 […] chimeric virus 64-C32-3. Briefly: cell-based or functional assay.
Experiment [26] deals with Biotin-conjugated …-NH2 (HIV-1). Briefly: direct ELISA, IgG on immobilized biotinylated …. To be noted: scale: reciprocal dilution of 1 mg/ml IgG at OD450 of 0.5. (In general: ELISA stands for enzyme-linked immunosorbent assay.)

Regarding “Ac-CNEQELLEKDKWADL-NH2 (lactam (positions not given here); also: lactam bridge between underlined K and D, places not given here) [Lac-1, constrained peptide with a lactam bridge between K and D residues]”, the “binding/affinity to 2F5 relative to the LELDKWASL peptide” value in the experiment with 2F5 was “higher affinities to 2F5; also recorded: two times more tightly”.

For Ac-CENEQELLELDKWASL-NH2 [Linear-1], the “binding/affinity to 2F5 relative to the LELDKWASL peptide” value in the experiment with 2F5 is listed as “higher affinities to 2F5”.

For LELDKWASL, the “binding to 2F5 in an ELISA relative to the shorter ELDKWAS peptide” value with 2F5 (Tian et al., 2002) is recorded as roughly 100 fold.

Regarding human mAb 2F5 (antibody), the 2F5 IC50, microtiter neutralization assay amounted to 0.49 µg/mL in experiment [1]; 0.57 µg/mL in experiment [2]; 5.9 µg/mL in experiment [3]; 0.29 µg/mL in experiment [4]; 1.5 µg/mL in [5]; 0.98 µg/mL in experiment [6]. For the same substance, the 2F5 IC50, microtiter neutralization assay was 0.64 µg/mL in experiment [7]; 0.05 µg/mL in experiment [8]; 3 µg/mL in experiment [9]; 8.2 µg/mL in [10]; 1.5 µg/mL in [11]; 0.31 µg/mL in experiment [12]. For the same substance, the 2F5 IC50, microtiter neutralization assay was determined as 0.24 µg/mL in experiment [13]; 0.21 µg/mL in experiment [14]; 0.16 µg/mL in experiment [15]; 0.06 µg/mL in [16]; 0.01 µg/mL in experiment [17]; 0.02 µg/mL in experiment [18]. Further, the 2F5 IC50, microtiter neutralization assay was found to be 0.01 µg/mL in experiment [19]; 0.66 µg/mL in [20]; 0.23 µg/mL in [21]; 0.05 µg/mL in experiment [22]; 0.49 µg/mL in experiment [23]; 0.07 µg/mL in [24]. Further, the 2F5 IC50, microtiter neutralization assay in experiment [25] was 0.05 µg/mL. Further, in experiment [26], the … binding turned out to be 2400.
